# From the RNAGym collection of RNA variant scans (doi:10.1021/acssynbio.7b00057)
# B1: Pistol ribozyme (parent)
# chain: GGGUCGUUGUUCCAUAAUCGCGUGGAUAUGGCACGCAAGUUUCUACCGGGCACCGUAAAUGUCCGACUGGAGCCGUUCGGGCGGCUAUAAACAGACCUCAGGCCCGAAGCGUGGCGGCACCUGCCGCCGGUGGUAAAAAAGAUCGGAAGAGCACACGUCU
# Variants of: B1
# Assay: aptazyme ON/OFF ratio, guanine; higher = stronger switching; co-transcriptional cleavage with and without guanine
row,Variant,aptazyme ON/OFF ratio
1,U8C G9U U10G U11G C13G,1.13
2,U8C G9U U10G U11G C13U,1.27
3,U8C G9U U10G U11G C13A,1.14
4,U8C G9U U11A C13A,1.27
5,U8C G9U U11A C13G,1.03
6,U8C G9U U11A C13U,1.33
7,U8C G9U U11A C12A,1.37
8,U8C G9U U11A C12G,1.36
9,U8C G9U U11A C12U,1.39
10,U8C G9U U10C U11G,1.33
11,U8C G9U U10C U11A,1.44
12,U8C G9U U10C U11C,1.05
13,U8C G9U U11G C12A,1.08
14,U8C G9U U11G C12U,1.59
15,U8C G9U U11G C12G,1.2
16,U8C U10A C13A,1.07
17,U8C U10A C13U,1.05
18,U8C U10A C13G,1.05
19,U8C G9U U10C U11G C12U C13G,1.12
20,U8C G9U U10C U11G C12U C13U,1.25
21,U8C G9U U10C U11G C12U C13A,1.13

row,Variant,aptazyme ON/OFF ratio
1,U8C G9U U10G U11A C12G C13G,1.33
2,U8C G9U U10G U11A C12G C13U,1.12
3,U8C G9U U10G U11A C12G C13A,1.16
4,U8C G9U U10G U11G C12G C13A,1.14
5,U8C G9U U10G U11G C12G C13G,1.1
6,U8C G9U U10G U11G C12G C13U,1.26
7,U8C G9U U10C C12U C13U,1.16
8,U8C G9U U10C C12U C13A,1.06
9,U8C G9U U10C C12U C13G,1.07
10,U8C U10C U11G C12G C13U,1.08
11,U8C U10C U11G C12G C13A,1.25
12,U8C U10C U11G C12G C13G,1.15
13,U8C U10C U11C C13G,1.19
14,U8C U10C U11C C13A,1.08
15,U8C U10C U11C C13U,1.08
16,U8C G9U U10C U11A C12U,1.17
17,U8C G9U U10C U11A C12G,1.17
18,U8C G9U U10C U11A C12A,1.15
19,U8C U10C C12A,1.34
20,U8C U10C C12G,1.29
21,U8C U10C C12U,2.98

row,Variant,aptazyme ON/OFF ratio
1,U8C U10A U11C C12A C13G,1.07
2,U8C U10A U11C C12A C13A,1.11
3,U8C U10A U11C C12A C13U,1.08
4,U8C G9U U10G U11C C13U,1.11
5,U8C G9U U10G U11C C13A,1.24
6,U8C G9U U10G U11C C13G,1.04
7,U8C U10C U11G C12U C13G,1.28
8,U8C U10C U11G C12U C13A,1.26
9,U8C U10C U11G C12U C13U,1.46
10,U8C G9U U10C C12G,1.26
11,U8C G9U U10C C12U,1.05
12,U8C G9U U10C U11G C12A C13A,1.19
13,U8C G9U U10C U11G C12A C13U,1.12
14,U8C G9U U10C U11G C12A C13G,1.17
15,U8C G9U U10G C12G C13G,1.21
16,U8C G9U U10G C12G C13A,1.3
17,U8C G9U U10G C12G C13U,1.3
18,U8C U10A U11G C13G,1.29
19,U8C U10A U11G C13U,1.23
20,U8C U10A U11G C13A,1.3
21,U8C U10C U11C C12U C13A,1.23

row,Variant,aptazyme ON/OFF ratio
1,U8C U10C U11C C12U C13G,1.26
2,U8C U10C U11C C12U C13U,1.28
3,U8C U10G U11A C12G C13A,1.13
4,U8C U10G U11A C12G C13G,1.15
5,U8C U10G U11A C12G C13U,1.18
6,U8C U10G C12G C13G,1.12
7,U8C U10G C12G C13U,1.12
8,U8C U10G C12G C13A,1.09
9,U8C U10A U11G C12U C13G,1.22
10,U8C U10A U11G C12U C13U,1.27
11,U8C U10A U11G C12U C13A,1.32
12,U8C U10G U11C C12A,2.79
13,U8C G9U U10C U11A C12A C13A,1.09
14,U8C G9U U10C U11A C12A C13G,1.08
15,U8C G9U U10C U11A C12A C13U,1.11
16,U8C G9U U11C C12U,1.09
17,U8C G9U U11C C12G,1.24
18,U8C G9U U11C C12A,1.12
19,U8C U10C C12A C13U,1.42
20,U8C U10C C12A C13A,1.33
21,U8C U10C C12A C13G,1.17
